B2: GST–M1 M+C domain fusion protein (domain or fragment)
chain: GDPNNMDKAVKLYRKLKREITFHGAKEISLSYSAGALASCMGLIYNRMGAVTTEVAFGLVCATCEQIADSQHRSHRQMVTTTNPLIRHENRMVLASTTAKAMEQMAGSSEQAAEAMEVASQARQMVQAMRTIGTHPSSSAGLKNDLLENLQAYQKRMGVQMQRFK
notes: not shown: GST, N-terminal, kept
B3: GST–M1 middle domain fusion protein (domain or fragment)
chain: GDPNNMDKAVKLYRKLKREITFHGAKEISLSYSAGALASCMGLIYNRMGAVTTEVAFGLVCATCEQIADSQHRSHRQM
notes: as for B2

What all share (experiment): pull-down
One experiment has as its target purified NP (influenza A virus A/PR/8/34 (PR8), UniProt P03466 1-498). The conditions noted are these: both partners purified.
In experiment [1] the target is T1, GST–M1 C-terminal domain fusion protein (influenza A virus A/PR/8/34 (PR8), UniProt P03485 165-252).
T1 construct: Cloned into pGEX-3X; not shown: GST, N-terminal, kept
As to conditions: one partner purified.

The target of experiment [2] is B2. As to conditions: one partner purified.
Experiment [3] concerns the target B3. As to conditions: one partner purified.

The values below come from article PMC2884976 (The Journal of General Virology, 2007).

Chain of purified NP (P03466 whole entry, the tested form may be a part): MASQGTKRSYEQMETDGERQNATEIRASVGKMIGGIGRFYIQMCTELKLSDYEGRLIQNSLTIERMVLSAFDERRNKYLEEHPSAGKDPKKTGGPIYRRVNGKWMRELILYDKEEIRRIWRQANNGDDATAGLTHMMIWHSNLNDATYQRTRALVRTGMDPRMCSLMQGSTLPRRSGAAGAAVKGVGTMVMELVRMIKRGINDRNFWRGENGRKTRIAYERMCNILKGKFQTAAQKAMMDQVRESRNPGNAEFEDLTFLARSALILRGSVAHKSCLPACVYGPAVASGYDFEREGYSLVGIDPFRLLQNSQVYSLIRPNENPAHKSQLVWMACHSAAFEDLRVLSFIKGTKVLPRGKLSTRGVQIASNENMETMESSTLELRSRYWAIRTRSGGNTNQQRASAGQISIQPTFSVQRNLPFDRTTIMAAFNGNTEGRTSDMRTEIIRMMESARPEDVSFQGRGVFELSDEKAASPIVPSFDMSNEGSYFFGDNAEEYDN

B1: GST–M1 N+M domain fusion protein (domain or fragment)
chain: MSLLTEVETYVLSIIPSGPLKAEIAQRLEDVFAGKNTDLEVLMEWLKTRPILSPLTKGILGFVFTLTVPSERGLQRRRFVQNALNGNGDPNNMDKAVKLYRKLKREITFHGAKEISLSYSAGALASCMGLIYNRMGAVTTEVAFGLVCATCEQIADSQHRSHRQM
notes: as for B2
As to B1, the binding result with purified NP is “binds”. Same read-out and setting: as for B2, the entry is “binds”; as for B3, “binds”.

B4: untagged WT radiolabelled M1, in vitro translated (natural protein)
chain: MSLLTEVETYVLSIIPSGPLKAEIAQRLEDVFAGKNTDLEVLMEWLKTRPILSPLTKGILGFVFTLTVPSERGLQRRRFVQNALNGNGDPNNMDKAVKLYRKLKREITFHGAKEISLSYSAGALASCMGLIYNRMGAVTTEVAFGLVCATCEQIADSQHRSHRQMVTTTNPLIRHENRMVLASTTAKAMEQMAGSSEQAAEAMEVASQARQMVQAMRTIGTHPSSSAGLKNDLLENLQAYQKRMGVQMQRFK
As for B4, the “binding activity relative to full-length GST–M1” value is about 40% in experiment [1], 2 fold in experiment [2] and 2 fold in experiment [3].
